# From patent US9151744B2, “Lung tissue model” (Pécsi Tudományegyetem, priority 2009, dated 2015)
# B1: Wnt11: Wnt11 protein, applied as supernatant (SN) of A549 cells transfected with lentiviral full-length Wnt11-IRES-GFP construct (protein, UniProt O96014 1-354, looked up)
# chain: MRARPQVCEALLFALALQTGVCYGIKWLALSKTPSALALNQTQHCKQLEGLVSAQVQLCRSNLELMHTVVHAAREVMKACRRAFADMRWNCSSIELAPNYLLDLERGTRESAFVYALSAAAISHAIARACTSGDLPGCSCGPVPGEPPGPGNRWGGCADNLSYGLLMGAKFSDAPMKVKKTGSQANKLMRLHNSEVGRQALRASLEMKCKCHGVSGSCSIRTCWKGLQELQDVAADLKTRYLSATKVVHRPMGTRKHLVPKDLDIRPVKDSELVYLQSSPDFCMKNEKVGSHGTQDRQCNKTSNGSDSCDLMCCGRGYNPYTDRVVERCHCKYHWCCYVTCRRCERTVERYVCK
# modifications: full-length
# notes: Wnt11 protein, applied as supernatant (SN) of A549 cells transfected with lentiviral full-length Wnt11-IRES-GFP construct
# Experiments:
# [1] = test system: SAEC-NHLF lung micro-tissue; experiment: Wnt11 treatment of 3D SAEC-NHLF lung micro-tissue: marker expression (qRT-PCR, PCR, immunofluorescence); assay type: cell-based, human; conditions: for AQP3 expression / E-cadherin expression / N-cadherin expression (EMT marker) / S100A4 expression (EMT marker) / SLUG expression (EMT marker): 3D cultures, Wnt11 SN vs control SN, mRNA in sorted lung epithelium; for pro-SFTPC protein expression: immunofluorescence, 3D micro-tissue, 72 hours, vs control SN
# Protocol: (§1) Primary SAEC, NHLF and pulmonary HMVEC cells were purchased from Lonza. All cell types were isolated from the lungs of multiple random donors of different sexes and ages. We used SAGM, FGM or EGM-2 medium for the initial expansion of SAEC, NHLF or pulmonary HMVEC, respectively, as recommended by the manufacturer. All types of cell cultures were incubated in an atmosphere containing 5% CO2, at 37° C. For 2D and 3D culturing, pure or mixed cell populations were cultured in a 50-50% mixture of SAGM (Small Airway Growth Medium, Lonza) and complete DMEM. For two and three-cell cultures containing HMVEC cells, the appropriate growth factor supplements for HMVEC cells were added to the 50-50% mixture of SAGM and DMEM. The compositions of cell culture media were prepared in accordance with instructions of the manufacturer. For 2D and 3D culturing, cells were mixed at the indicated ratios and dispensed onto flat-bottom 6 well plates or 96-well V-bottom plates (Sarstedt), respectively. V-bottom plates were immediately centrifuged after cell seeding at 600×g for 10 minutes at room temperature.
# SAEC and NHLF were stained with CFSE and DiI according to manufacturers instructions (Molecular probes). Cells were mixed and cultured for 72 hours in 2D and 3D systems. Stained cells were dissociated by mild trypsin treatment followed by PBS+EDTA treatment. Dissociated cells were sorted using a BD FACSVantage cell sorter into tubes with lysis buffer for mRNA preparation (Miltenyi Biotech).
# After culturing cells in 3D for 3 days, micro-tissues were carefully removed from the V-bottom plates and fixed in 4% formaline for 10 minutes at room temperature. Fixed samples were covered with TissueTech cryostate embedding medium and 8 μm thick frozen sections were made. Sections were permeabilized in PBS buffer containing 0.1% saponine and 5% BSA for 30 minutes. Primary and secondary antibodies were diluted in the same buffer and incubated with the samples for 1-1 hour. Fluorescent images were acquired using an Olympus IX-81 fluorescent microscope. To ensure the comparability of expression levels of SFTPC, AQP3 and N-cad in Wnt11-SN— or Wnt11 siRNA-treated samples to their matched untreated controls, all images were captured with the same exposition settings.
# Retroviral infection. Retroviral supernatants were generated from retroviral vectors containing Wnt11-GFP, or green fluorescence protein (GFP) only, in 293 cells. Epithelial cell line A549 was transformed using the above viruses in 24-well-plates, in 250 μl of viral supernatant and 50 μl of DMEM polybrene mix (final conc.: 8 μg/ml)/well, and then centrifuged for 60 min at 2100 rpm at room temperature. The cells were incubated for 3 days in fresh DMEM containing 10% FCS, then sorted based on GFP expression using FACSVantage cell sorter (BD Biosciences). GFP positive cells were then cultured as described above. The presence of Wnt11 protein were verified by immunoblotting and immunofluorescence using Wnt11 specific polyclonal antibody (AbCam) (FIG. 7).
# All samples were set up in duplicates. Briefly, Ct values were determined for each sample using an automatic threshold level determined by the 7500 System SDS Software. Delta Ct (dCt) values were determined according to the following formula: dCt(target gene)=Ct(target gene)−Ct(housekeeping gene). Changes in gene expression are shown as RQ values calculated using the next formula: RQ=2^−ddCt, where ddCt values were calculated as ddCt=dCt(sample)−dCt(reference sample).
# [2] = test system: SAEC-NHLF lung micro-tissue; experiment: Wnt11 SN treatment of 3D lung micro-tissue: haematoxilin-eosin morphology; assay type: cell-based, human; conditions: 3D micro-tissue, 72 hours, vs control A549 SN
# Protocol: as §1
# Retroviral infection. Retroviral supernatants were generated from retroviral vectors containing Wnt11-GFP, or green fluorescence protein (GFP) only, in 293 cells. […]
molecule,measurement,setting,value
B1,AQP3 expression,[1],up-regulation
same,E-cadherin expression,[1],up-regulation
same,N-cadherin expression (EMT marker),[1],down-regulation
same,S100A4 expression (EMT marker),[1],down-regulation
same,SLUG expression (EMT marker),[1],down-regulation
same,AQP3 expression,[1]; listed as Wnt11 SN,increased
same,E-cadherin expression,[1]; listed as Wnt11 SN,increased
same,N-cadherin expression (EMT marker),[1]; listed as Wnt11 SN,decreased
same,S100A4 expression (EMT marker),[1]; listed as Wnt11 SN,decreased
same,SLUG expression (EMT marker),[1]; listed as Wnt11 SN,decreased
same,SFTPA mRNA levels,"[1]; PCR, Wnt11 treated cultures vs untreated control",significant increase
same,surfactant expression (ATII type differentiation of alveolar epithelium),"[1]; all studied culture conditions, in the presence of fibroblasts",drastic boost
same,pro-SFTPC protein expression,[1],radical increase
same,pro-SFTPC protein expression,[1]; listed as Wnt11 SN,dramatic increase
same,epithelial cell morphology (HE staining),[2],increased number of cells with cuboid-like morphology
